Where “and” joins values, the source holds several entries; their conditions need not be identical. Equal values may be shown once.
Assays:
[1] = tested on: MiaPACA-2 tumors microvasculature; test: Tumor microvasculature quantification by CD31 immunostaining; assay type: in vivo, nude mice
Experimental: Tumors from MiaPACA-2 xenograft tumor model were OCT (Tissue-Tek®, Sakura) embedded and frozen. One cryosection (5 μm) corresponding to the central part of each tumor was analyzed. Sections were fixed in acetone/chloroform (1:1) at −20° C. for 5 min, were dried over night at room temperature, washed with PBS and treated for 10 min at 4° C. in a dark chamber with H2O2 (0.03%) in PBS. Then, sections were washed with PBS and blocked for 20 min at 4° C. using PBS-BSA (2%) plus rabbit serum (5%) (Vector) and with Avidin-biotin blocking solution (Dako) for 10 min each one at 4° C. Samples were incubated for 1 hour at room temperature with primary antibody; a monoclonal rat anti-mouse antibody directed against CD31 (dil 1:200, BD PharMingen) diluted in blocking buffer. After incubation sections were incubated with a polyclonal biotinylated anti-rat antibody as secondary antibody (dil 1:500, Vector) for 30 min at room temperature and were incubated with the ABC reagent (Pierce) for 30 min at room temperature. Finally, sections were incubated with NovaRed (Vector) for 20 min at 4° C., stained with hematoxilin Harris (Sigma) for 10 seconds and mounted using DPX non aqueous mounting medium (Sigma).
Angiogenesis quantification was measured using two criteria:
8 and 39 pictures per slice, depending on the size of tumours, were taken and analyzed using the NIH ImageJ imaging software.
Comparisons between groups were made using the two-tailed nonparametric Mann Whitney U test. Differences for which P value was less than 0.05 were considered statistically significant.
The inventors investigated whether the 5C3 would actually affect tumor angiogenesis in vivo. The evaluation of tumor angiogenesis was made based on the CD31 immunostaining and two analytics approximations: MicroVessel Density (M.V.D.) and the fractional area of vessels (A.A.).

[2] = tested on: IL-8 release induced by S100A4 in THP-1 monocytes; test: IL-8 release in THP-1 monocytes (sandwich ELISA); assay type: cell-based, human
Experimental: Cells of the human monocytic leukemia cell line THP-1 (ATCC) were grown in RPMI 1640 culture medium supplemented with 10% FCS and 1% penicillin/streptomycin, at 37° C. in 5% CO2 in a humidified incubator. Cells were plated at 5.0×10^5 cells/well. […] Anti-mouse IgG (Fc specific) was always added in all the cases for preventing the Fc receptor response. Cell culture supernatants were collected after 24 h and stored at −20° C. The levels of IL-8 were analyzed by sandwich ELISA.

[3] = group G2, MiaPACA-2 tumors, day 30
[4] = individual animal of G2 (5C3 treatment group), MiaPACA-2 tumor, day 30

B1: 5C3: mouse monoclonal anti-S100A4 antibody, IgG1, from hybridoma ECACC 10022401; VL SEQ ID NO: 1, VH SEQ ID NO: 2 (antibody, V domains shown)
VH: EAQLQQSGAELVKPGASVKLSCTASGFNIQETYMHWVKQRPEQGLEWIGRIDPANGNTKDDPKFQGKASITVDTSSNTAYLQLSSLTSEDTAVYYCASSYAMDYWGQGTSVTVSS
VL: DVLMTQTPLSLPVSLGDQASISCRSSQSIVHSNGNTYLEWYLQKTGQSPELLIYKVSNRLSGVPDRFSGSGSGTDFTLKISRVEAEDLGVYYCFQGSHVPFTFGSGTKLEIK
modifications: VH region of the 5C3 monoclonal antibody; VL region of the 5C3 monoclonal antibody
reduction in microvessel density compared with control group (vehicle) ([1]; MiaPACA-2 tumors): approximately 40% | reduction of the section area occupied by vessels compared with control group (vehicle) ([1]; MiaPACA-2 tumors): ~30% | AA (%) Mean [1, 3]: 0.69% | AA (%) Median [1, 3]: 0.59% | MVD (v.p./mm^2) Mean [1, 3]: 27.42 v.p./mm^2 | MVD (v.p./mm^2) Median [1, 3]: 26.45 v.p./mm^2 | % A.A. (Fractional area of vessels) [1, 4]: 1.14% and 1.26% and 0.53% (2×) and 0.41% and 0.66% and 0.72% and 0.32% | M.V.D. (MicroVascular Density) [1, 4]: 31.55 v.p./mm^2 and 44.37 v.p./mm^2 and 20.23 v.p./mm^2 and 16.81 v.p./mm^2 and 29.84 v.p./mm^2 and 36.23 v.p./mm^2 and 17.31 v.p./mm^2 and 23.05 v.p./mm^2 | No of vessels [1, 4]: 514 and 460 and 240 and 203 and 440 and 426 and 158 and 174 | IL-8 release induced by S100A4 ([2]; S100A4 3 μM, 24 h): can be blocked | IL-8 levels in absence of S100A4 ([2]; absence of S100A4, data not shown): no effect
